Laboratory results from the supplement of paper PMC11908140.

B1: library; numbered along this chain (parent)
chain: MRKPRAAVGSGHRKQAASQEGRQKHAKNNSQAKPSACDGLARQPEEVVLQASVSSYHLFRDVAEVTAFRGSLLSWYDQEKRDLPWRRRAEDEMDLDRRAYAVWVSEVMLQQTQVATVINYYTGWMQKWPTLQDLASASLEEVNQLWAGLGYYSRGRRLQEGARKVVEELGGHMPRTAETLQQLLPGVGRYTAGAIASIAFGQATGVVDGNVARVLCRVRAIGADPSSTLVSQQLWGLAQQLVDPARPGDFNQAAMELGATVCTPQRPLCSQCPVESLCRARQRVEQEQLLASGSLSGSPDVEECAPNTGQCHLCLPPSEPWDQTLGVVNFPRKASRKPPREESSATCVLEQPGALGAQILLVQRPNSGLLAGLWEFPSVTWEPSEQLQRKALLQELQRWAGPLPATHLRHLGEVVHTFSHIKLTYQVYGLALEGQTPVTTVPPGARWLTQEEFHTAAVSTAMKKVFRVYQGQQPGTCMGSKRSQVSSPCSRKKPRMGQQVLDNFFRSHISTDAHSLNSAAQ

Variants of: B1
Assay: 8OG:A repair function score (normalized; synonymous = 0, nonsense = -1) (normalized log-likelihood score); higher = more repair activity (WT-like)
Conditions: with 8OG:A DNA repair reporter (GFP) in HEK-293 MUTYH KO cells
Method in brief: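 Lentiviral MUTYH cDNA NNN codon-scan libraries were expressed in MUTYH knockout HEK-293 cells with 10 pg/ml doxycycline, and the cells received an 8OG:A GFP repair reporter together with mCherry. At 72 h, viable mCherry+ cells went into GFP+ (repair) or GFP− bins, three replicates per tile, before tile amplicons were sequenced. A repair function score was then built from per-tile Rosace fitness scores, anchored on the synonymous and nonsense distributions. Synonymous medians sat at 0 and nonsense at -1, and variants under 300 counts per million at the start were left out.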
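Note: cells sorted at 72 h after reporter transfection.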

| Variant | 8OG:A repair function score |
| --- | --- |
| MRKPRAAVGSGHRKQAASQEGRQKHAKNNSQAKPSACDGLARQPEEVVLQASVSSYHLFRDVAEVTAFRGSLLSWYDQEKRDLPWRRRAEDEMDLDRRAYAVWVSEVMLQQTQVATVINYYTGWMQKWPTLQDLASASLEEVNQLWAGLGYYSRGRRLQEGARKVVEEVGGHMPRTAETLQQLLPGVGRYTAGAIASIAFGQATGVVDGNVARVLCRVRAIGADPSSTLVSQQLWGLAQQLVDPARPGDFNQAAMELGATVCTPQRPLCSQCPVESLCRARQRVEQEQLLASGSLSGSPDVEECAPNTGQCHLCLPPSEPWDQTLGVVNFPRKASRKPPREESSATCVLEQPGALGAQILLVQRPNSGLLAGLWEFPSVTWEPSEQLQRKALLQELQRWAGPLPATHLRHLGEVVHTFSHIKLTYQVYGLALEGQTPVTTVPPGARWLTQEEFHTAAVSTAMKKVFRVYQGQQPGTCMGSKRSQVSSPCSRKKPRMGQQVLDNFFRSHISTDAHSLNSAAQ [L169V] | -0.409 |
| MRKPRAAVGSGHRKQAASQEGRQKHAKNNSQAKPSACDGLARQPEEVVLQASVSSYHLFRDVAEVTAFRGSLLSWYDQEKRDLPWRRRAEDEMDLDRRAYAVWVSEVMLQQTQVATVINYYTGWMQKWPTLQDLASASLEEVNQLWAGLGYYSRGRRLQEGARKVVEELGGHMPRTAETLQQLLPGVGRYTAGAIASIAFGQATGVVDGNVARVLCRVRAIGADPSSTLVSQQLWGLAQQLVDPARPGDFNQAAMELGATVCPPQRPLCSQCPVESLCRARQRVEQEQLLASGSLSGSPDVEECAPNTGQCHLCLPPSEPWDQTLGVVNFPRKASRKPPREESSATCVLEQPGALGAQILLVQRPNSGLLAGLWEFPSVTWEPSEQLQRKALLQELQRWAGPLPATHLRHLGEVVHTFSHIKLTYQVYGLALEGQTPVTTVPPGARWLTQEEFHTAAVSTAMKKVFRVYQGQQPGTCMGSKRSQVSSPCSRKKPRMGQQVLDNFFRSHISTDAHSLNSAAQ [T263P] | -0.461 |
| MRKPRAAVGSGHRKQAASQEGRQKHAKNNSQAKPSACDGLARQPEEVVLQASVSSYHLFRDVAEVTAFRGSLLSWYDQEKRDLPWRRRAEDEMDLDRRAYAVWVSEVMLQQTQVATVINYYTGWMQKWPTLQDLASASLEEVNQLWAGLGYYSRGRRLQEGARKVVEELGGHMPRTAETLQQLLPGVGRYTAGAIASIAFGQATGVVDGNVARVLCRVRAIGADPSSTLVSQQLWGLAQQLVDPARPGDFNQAAMELGATVCTPQRPLCSQCPVESLCRARQRVEQEQLLASGSLSGSPDVEECAPNTGQCHLCLPPSEPWDQTLGVVNFPRKASRKPPREESSATCVLEQPGALGAQILLVQRPNSGLLAGLWEFPSVTWEPHEQLQRKALLQELQRWAGPLPATHLRHLGEVVHTFSHIKLTYQVYGLALEGQTPVTTVPPGARWLTQEEFHTAAVSTAMKKVFRVYQGQQPGTCMGSKRSQVSSPCSRKKPRMGQQVLDNFFRSHISTDAHSLNSAAQ [S384H] | -0.0587 |
| MRKPRAAVGSGHRKQAASQEGRQKHAKNNSQAKPSACDGLARQPEEVVLQASVSSYHLFRDVAEVTAFRGSLLSWYDQEKRDLPWRRRVEDEMDLDRRAYAVWVSEVMLQQTQVATVINYYTGWMQKWPTLQDLASASLEEVNQLWAGLGYYSRGRRLQEGARKVVEELGGHMPRTAETLQQLLPGVGRYTAGAIASIAFGQATGVVDGNVARVLCRVRAIGADPSSTLVSQQLWGLAQQLVDPARPGDFNQAAMELGATVCTPQRPLCSQCPVESLCRARQRVEQEQLLASGSLSGSPDVEECAPNTGQCHLCLPPSEPWDQTLGVVNFPRKASRKPPREESSATCVLEQPGALGAQILLVQRPNSGLLAGLWEFPSVTWEPSEQLQRKALLQELQRWAGPLPATHLRHLGEVVHTFSHIKLTYQVYGLALEGQTPVTTVPPGARWLTQEEFHTAAVSTAMKKVFRVYQGQQPGTCMGSKRSQVSSPCSRKKPRMGQQVLDNFFRSHISTDAHSLNSAAQ [A89V] | 0.00684 |
| MRKPRAAVGSGHRKQAASQEGRQKHAKNNSQAKPSACDGLARQPEEVVLQASVSSYHLFRDVAEVTAFRGSLLSWYDQEKRDLPWRRRAEDEMDLDRRAYAVWVSGVMLQQTQVATVINYYTGWMQKWPTLQDLASASLEEVNQLWAGLGYYSRGRRLQEGARKVVEELGGHMPRTAETLQQLLPGVGRYTAGAIASIAFGQATGVVDGNVARVLCRVRAIGADPSSTLVSQQLWGLAQQLVDPARPGDFNQAAMELGATVCTPQRPLCSQCPVESLCRARQRVEQEQLLASGSLSGSPDVEECAPNTGQCHLCLPPSEPWDQTLGVVNFPRKASRKPPREESSATCVLEQPGALGAQILLVQRPNSGLLAGLWEFPSVTWEPSEQLQRKALLQELQRWAGPLPATHLRHLGEVVHTFSHIKLTYQVYGLALEGQTPVTTVPPGARWLTQEEFHTAAVSTAMKKVFRVYQGQQPGTCMGSKRSQVSSPCSRKKPRMGQQVLDNFFRSHISTDAHSLNSAAQ [E106G] | -1.3 |
| MRKPRAAVGSGHRKQAASQEGRQKHAKNNSQAKPSACDGLARQPEEVVLQASVSSYHLFRDVAEVTAFRGSLLSWYDQEKRDLPWRRRAEDEMCLDRRAYAVWVSEVMLQQTQVATVINYYTGWMQKWPTLQDLASASLEEVNQLWAGLGYYSRGRRLQEGARKVVEELGGHMPRTAETLQQLLPGVGRYTAGAIASIAFGQATGVVDGNVARVLCRVRAIGADPSSTLVSQQLWGLAQQLVDPARPGDFNQAAMELGATVCTPQRPLCSQCPVESLCRARQRVEQEQLLASGSLSGSPDVEECAPNTGQCHLCLPPSEPWDQTLGVVNFPRKASRKPPREESSATCVLEQPGALGAQILLVQRPNSGLLAGLWEFPSVTWEPSEQLQRKALLQELQRWAGPLPATHLRHLGEVVHTFSHIKLTYQVYGLALEGQTPVTTVPPGARWLTQEEFHTAAVSTAMKKVFRVYQGQQPGTCMGSKRSQVSSPCSRKKPRMGQQVLDNFFRSHISTDAHSLNSAAQ [D94C] | -0.112 |
| MRKPRAAVGSGHRKQAASQEGRQKHAKNNSQAKPSACDGLARQPEEVVLQASVSSYHLFRDVAEVTAFRGSLLSWYDQEKRDLPWRRRAEDEMDLDRRAYAVWVSEVMLQQTQVATVINYYTGWMQKWPTLQDLASASLEEVNQLWAGLGYYSRGRVLQEGARKVVEELGGHMPRTAETLQQLLPGVGRYTAGAIASIAFGQATGVVDGNVARVLCRVRAIGADPSSTLVSQQLWGLAQQLVDPARPGDFNQAAMELGATVCTPQRPLCSQCPVESLCRARQRVEQEQLLASGSLSGSPDVEECAPNTGQCHLCLPPSEPWDQTLGVVNFPRKASRKPPREESSATCVLEQPGALGAQILLVQRPNSGLLAGLWEFPSVTWEPSEQLQRKALLQELQRWAGPLPATHLRHLGEVVHTFSHIKLTYQVYGLALEGQTPVTTVPPGARWLTQEEFHTAAVSTAMKKVFRVYQGQQPGTCMGSKRSQVSSPCSRKKPRMGQQVLDNFFRSHISTDAHSLNSAAQ [R157V] | -0.362 |
| MRKPRAAVGSGHRKQAASQEGRQKHAKNNSQAKPSACDGLARQPEEVVLQASVSSYHLFRDVAEVTAFRGSLLSWYDQEKRDLPWRRRAEDEMDLDRRAYAVWVSEVMLQQTQVATVINYYTGWMQKWPTLQDLASASLEEVNQLWAGLGYYSRGRRLQEGARKVVEELGGHMPRTAETLQQLLPGVGRYTAGAIASIAFGQATGVVDGNVARVLCRVRAIGADPSSTLVSQQLWGLAQQLVDPARPGDFNQAAMELGATVCTPQRPLCSQCPVESLCRARQRVEQEQLLASGSLSGSPDVEECAPNTGQCHLCLPPSEPWDQTLGVVNFPRKASRKPPREESSATCVLEQPGALGAQILLVQRPNSGLLAGLWEFPSVTWEPSEQLQRKALLQELQRWAGPLPATHLRHLGEVVHTFSHIKLTYQVYGLALEGQTPVTTVPPGARWLTQEEFHPAAVSTAMKKVFRVYQGQQPGTCMGSKRSQVSSPCSRKKPRMGQQVLDNFFRSHISTDAHSLNSAAQ [T455P] | -0.714 |
| MRKPRAAVGSGHRKQAASQEGRQKHAKNNSQAKPSACDGLARQPEEVVLQASVSSYHLFRDVAEVTAFRGSLLSWYDQEKRDLPWRRRAEDEMDLDRRAYAVWVSEVMLQRTQVATVINYYTGWMQKWPTLQDLASASLEEVNQLWAGLGYYSRGRRLQEGARKVVEELGGHMPRTAETLQQLLPGVGRYTAGAIASIAFGQATGVVDGNVARVLCRVRAIGADPSSTLVSQQLWGLAQQLVDPARPGDFNQAAMELGATVCTPQRPLCSQCPVESLCRARQRVEQEQLLASGSLSGSPDVEECAPNTGQCHLCLPPSEPWDQTLGVVNFPRKASRKPPREESSATCVLEQPGALGAQILLVQRPNSGLLAGLWEFPSVTWEPSEQLQRKALLQELQRWAGPLPATHLRHLGEVVHTFSHIKLTYQVYGLALEGQTPVTTVPPGARWLTQEEFHTAAVSTAMKKVFRVYQGQQPGTCMGSKRSQVSSPCSRKKPRMGQQVLDNFFRSHISTDAHSLNSAAQ [Q111R] | -0.248 |
| MRKPRAAVGSGHRKQAASQEGRQKHAKNNSQAKPSACDGLARQPEETVLQASVSSYHLFRDVAEVTAFRGSLLSWYDQEKRDLPWRRRAEDEMDLDRRAYAVWVSEVMLQQTQVATVINYYTGWMQKWPTLQDLASASLEEVNQLWAGLGYYSRGRRLQEGARKVVEELGGHMPRTAETLQQLLPGVGRYTAGAIASIAFGQATGVVDGNVARVLCRVRAIGADPSSTLVSQQLWGLAQQLVDPARPGDFNQAAMELGATVCTPQRPLCSQCPVESLCRARQRVEQEQLLASGSLSGSPDVEECAPNTGQCHLCLPPSEPWDQTLGVVNFPRKASRKPPREESSATCVLEQPGALGAQILLVQRPNSGLLAGLWEFPSVTWEPSEQLQRKALLQELQRWAGPLPATHLRHLGEVVHTFSHIKLTYQVYGLALEGQTPVTTVPPGARWLTQEEFHTAAVSTAMKKVFRVYQGQQPGTCMGSKRSQVSSPCSRKKPRMGQQVLDNFFRSHISTDAHSLNSAAQ [V47T] | -0.0192 |
| MRKPRAAVGSGHRKQAASQEGRQKHAKNNSQAKPSACDGLARQPEEVVLQASVSSYHLFRDVAEVTAFRGSLLSWYDQEKRDLPWRRRAEDEMDLDRRAYAVWVSEVMLQQTQVATVINYYTGWMQKWPTLQDLASASLEEVNQLWAGLGYYSRGRRLQEGARKSVEELGGHMPRTAETLQQLLPGVGRYTAGAIASIAFGQATGVVDGNVARVLCRVRAIGADPSSTLVSQQLWGLAQQLVDPARPGDFNQAAMELGATVCTPQRPLCSQCPVESLCRARQRVEQEQLLASGSLSGSPDVEECAPNTGQCHLCLPPSEPWDQTLGVVNFPRKASRKPPREESSATCVLEQPGALGAQILLVQRPNSGLLAGLWEFPSVTWEPSEQLQRKALLQELQRWAGPLPATHLRHLGEVVHTFSHIKLTYQVYGLALEGQTPVTTVPPGARWLTQEEFHTAAVSTAMKKVFRVYQGQQPGTCMGSKRSQVSSPCSRKKPRMGQQVLDNFFRSHISTDAHSLNSAAQ [V165S] | -0.732 |
| MRKPRAAVGSGHRKQAASQEGRQKHAKNNSQAKPSACDGLARQPEEVVLQASVSSYHLFRDVAEVTAFRGSLLSWYDQEKRDLPWRRRAEDEMDLDRRAYAVWVSEVMLQQTVVATVINYYTGWMQKWPTLQDLASASLEEVNQLWAGLGYYSRGRRLQEGARKVVEELGGHMPRTAETLQQLLPGVGRYTAGAIASIAFGQATGVVDGNVARVLCRVRAIGADPSSTLVSQQLWGLAQQLVDPARPGDFNQAAMELGATVCTPQRPLCSQCPVESLCRARQRVEQEQLLASGSLSGSPDVEECAPNTGQCHLCLPPSEPWDQTLGVVNFPRKASRKPPREESSATCVLEQPGALGAQILLVQRPNSGLLAGLWEFPSVTWEPSEQLQRKALLQELQRWAGPLPATHLRHLGEVVHTFSHIKLTYQVYGLALEGQTPVTTVPPGARWLTQEEFHTAAVSTAMKKVFRVYQGQQPGTCMGSKRSQVSSPCSRKKPRMGQQVLDNFFRSHISTDAHSLNSAAQ [Q113V] | -0.43 |
